# B1: Prelamin-A/C (Homo sapiens), P02545 (parent)
# chain: METPSQRRATRSGAQASSTPLSPTRITRLQEKEDLQELNDRLAVYIDRVRSLETENAGLRLRITESEEVVSREVSGIKAAYEAELGDARKTLDSVAKERARLQLELSKVREEFKELKARNTKKEGDLIAAQARLKDLEALLNSKEAALSTALSEKRTLEGELHDLRGQVAKLEAALGEAKKQLQDEMLRRVDAENRLQTMKEELDFQKNIYSEELRETKRRHETRLVEIDNGKQREFESRLADALQELRAQHEDQVEQYKKELEKTYSAKLDNARQSAERNSNLVGAAHEELQQSRIRIDSLSAQLSQLQKQLAAKEAKLRDLEDSLARERDTSRRLLAEKEREMAEMRARMQQQLDEYQELLDIKLALDMEIHAYRKLLEGEEERLRLSPSPTSQRSRGRASSHSSQTQGGGSVTKKRKLESTESRSSFSQHARTSGRVAVEEVDEEGKFVRLRNKSNEDQSMGNWQIKRQNGDDPLLTYRFPPKFTLKAGQVVTIWAAGAGATHSPPTDLVWKAQNTWGCGNSLRTALINSTGEEVAMRKLVRSVTVVEDDEDEDGDDLLHHHHGSHCSSSGDPAEYNLRSRTVLCGTCGQPADKASASGSGAQVGGPISSGSSASSVTVTRSYRSVGGSGGGSFGDNLVTRSYLLGNSSPRTQSPQNCSIM
# partner: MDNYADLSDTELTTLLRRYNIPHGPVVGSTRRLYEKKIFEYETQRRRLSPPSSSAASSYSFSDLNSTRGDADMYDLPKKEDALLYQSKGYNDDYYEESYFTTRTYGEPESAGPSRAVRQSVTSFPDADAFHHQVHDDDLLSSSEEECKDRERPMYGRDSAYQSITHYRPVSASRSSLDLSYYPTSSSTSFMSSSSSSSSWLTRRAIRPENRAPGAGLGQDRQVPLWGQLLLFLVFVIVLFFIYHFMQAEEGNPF
# Variants of: B1
# Details: with emd_human EMD
row,effect of a mutation on the interaction,Variant
1,decreasing interaction strength,R482L
